From US20220372155A1 (LYVGEN BIOPHARMA, published 2022)

B1: Ly406 (bispecific antibody, human IgG1, kappa)
heavy: EVQLVESGGGLVQPGGSLRLSCAASGFNIKDTYMHWVRQAPGKGLEWVARIDPANGNSKYADSVKGRFTISADTSKNTAYLQMNSLRAEDTAVYYCAPFGYYVSDYAMAYWGQGTLVTVSSASTKGPSVFPLAPSSKSTSGGTAALGCLVKDYFPEPVTVSWNSGALTSGVHTFPAVLQSSGLYSLSSVVTVPSSSLGTQTYICNVNHKPSNTKVDKKVEPKSCDKTHTCPPCPAPELLGPSVFLFPPKPKDTLMISRTPEVTCVVVDVSHEDPEVKFNWYVDGVEVHNAKTKPREEQYNSTYRVVSVLTVLHQDWLNGKEYKCKVSNKALPAPIEKTISKAKGQPREPQVYTLPPSREEMTKNQVSLTCLVKGFYPSDIAVEWESNGQPENNYKTTPPVLDSDGSFFLYSKLTVDKSRWQQGNVFSCSVMHEALHNHYTQKSLSLSPGGGGGSGGGGSGGGGSGGGGSQVQLVESGGGLVQPGGSLKLSCATSGFNFNDYFMNWVRQASGKGLEWVGQIRNKNYNYATYYTESLEGRVTISRDDSKNTAYLQMNSLKTEDTAVYYCTSYYYDGFADYFDYWGQGTTVTVSSGGGGSGGGGSGGGGSGGGGSDIQMTQSPSSLSASVGDRVTITCKASQNIYIYLNWYQQKPGKAPKLLIYNTNNLQTGVPSRFSGSGSGTDFTLTISSLQPEDFATYYCLQHSSRRTFGGGTKVEIK
light: DIQLTQSPSSLSASVGDRVTITCRAGESVDIFGVGFLHWYQQKPGKAPKLLIYRASNLESGVPSRFSGSGSRTDFTLTISSLQPEDFATYYCQQTNEDPYTFGQGTKVEIKRTVAAPSVFIFPPSDEQLKSGTASVVCLLNNFYPREAKVQWKVDNALQSGNSQESVTEQDSKDSTYSLSSTLTLSKADYEKHKVYACEVTHQGLSSPVTKSFNRGEC
notes: Ly312 HC (IgG1 mutated Fc)-TM740 scFv VH-VL + Ly312 LC
B2: Ly407 (bispecific antibody, human IgG1, kappa)
heavy: EVQLVESGGGLVQPGGSLRLSCAASGFNIKDTYMHWVRQAPGKGLEWVARIDPANGNSKYADSVKGRFTISADTSKNTAYLQMNSLRAEDTAVYYCAPFGYYVSDYAMAYWGQGTLVTVSSASTKGPSVFPLAPSSKSTSGGTAALGCLVKDYFPEPVTVSWNSGALTSGVHTFPAVLQSSGLYSLSSVVTVPSSSLGTQTYICNVNHKPSNTKVDKKVEPKSCDKTHTCPPCPAPELLGPSVFLFPPKPKDTLMISRTPEVTCVVVDVSHEDPEVKFNWYVDGVEVHNAKTKPREEQYNSTYRVVSVLTVLHQDWLNGKEYKCKVSNKALPAPIEKTISKAKGQPREPQVYTLPPSREEMTKNQVSLTCLVKGFYPSDIAVEWESNGQPENNYKTTPPVLDSDGSFFLYSKLTVDKSRWQQGNVFSCSVMHEALHNHYTQKSLSLSPGK
light: DIQLTQSPSSLSASVGDRVTITCRAGESVDIFGVGFLHWYQQKPGKAPKLLIYRASNLESGVPSRFSGSGSRTDFTLTISSLQPEDFATYYCQQTNEDPYTFGQGTKVEIKRTVAAPSVFIFPPSDEQLKSGTASVVCLLNNFYPREAKVQWKVDNALQSGNSQESVTEQDSKDSTYSLSSTLTLSKADYEKHKVYACEVTHQGLSSPVTKSFNRGECGGGGSGGGGSGGGGSGGGGSDIQMTQSPSSLSASVGDRVTITCKASQNIYIYLNWYQQKPGKAPKLLIYNTNNLQTGVPSRFSGSGSGTDFTLTISSLQPEDFATYYCLQHSSRRTFGGGTKVEIKGGGGSGGGGSGGGGSGGGGSQVQLVESGGGLVQPGGSLKLSCATSGFNFNDYFMNWVRQASGKGLEWVGQIRNKNYNYATYYTESLEGRVTISRDDSKNTAYLQMNSLKTEDTAVYYCTSYYYDGFADYFDYWGQGTTVTVSS
notes: Ly312 HC (IgG1 mutated Fc) + Ly312 LC-TM740 scFv VL-VH
B3: Ly408 (bispecific antibody, human IgG1, kappa)
heavy: B2 heavy
light: DIQLTQSPSSLSASVGDRVTITCRAGESVDIFGVGFLHWYQQKPGKAPKLLIYRASNLESGVPSRFSGSGSRTDFTLTISSLQPEDFATYYCQQTNEDPYTFGQGTKVEIKRTVAAPSVFIFPPSDEQLKSGTASVVCLLNNFYPREAKVQWKVDNALQSGNSQESVTEQDSKDSTYSLSSTLTLSKADYEKHKVYACEVTHQGLSSPVTKSFNRGECGGGGSGGGGSGGGGSGGGGSQVQLVESGGGLVQPGGSLKLSCATSGFNFNDYFMNWVRQASGKGLEWVGQIRNKNYNYATYYTESLEGRVTISRDDSKNTAYLQMNSLKTEDTAVYYCTSYYYDGFADYFDYWGQGTTVTVSSGGGGSGGGGSGGGGSGGGGSDIQMTQSPSSLSASVGDRVTITCKASQNIYIYLNWYQQKPGKAPKLLIYNTNNLQTGVPSRFSGSGSGTDFTLTISSLQPEDFATYYCLQHSSRRTFGGGTKVEIK
notes: Ly312 HC (IgG1 mutated Fc) + Ly312 LC-TM740 scFv VH-VL
B4: Ly409 (bispecific antibody, human IgG1, kappa)
heavy: EVQLVESGGGVVQPGRSLRLSCSASGFDFTTYWMSWVRQAPGKGLEWIGEIHPDSSTINYAPSLKDRFTISRDNAKNTLFLQMDSLRPEDTGVYFCASLYFGFPWFAYWGQGTPVTVSSASTKGPSVFPLAPSSKSTSGGTAALGCLVKDYFPEPVTVSWNSGALTSGVHTFPAVLQSSGLYSLSSVVTVPSSSLGTQTYICNVNHKPSNTKVDKKVEPKSCDKTHTCPPCPAPELLGPSVFLFPPKPKDTLMISRTPEVTCVVVDVSHEDPEVKFNWYVDGVEVHNAKTKPREEQYNSTYRVVSVLTVLHQDWLNGKEYKCKVSNKALPAPIEKTISKAKGQPREPQVYTLPPSREEMTKNQVSLTCLVKGFYPSDIAVEWESNGQPENNYKTTPPVLDSDGSFFLYSKLTVDKSRWQQGNVFSCSVMHEALHNHYTQKSLSLSPGGGGGSGGGGSGGGGSGGGGSDIQMTQSPSSLSASVGDRVTITCLASEDISNDLAWYQQKPGKAPKLLIYFVDRLLDGVPSRFSGSGSGTDFTLTISSLQPEDFATYYCQQSYKYPPTFGQGTKLEIKGGGGSGGGGSGGGGSGGGGSEVQLVESGGGLVQPGGSLRLSCAASGFTFTNYGLHWVRQAPGKGLEWVSSISPSGGVTYYRDSVKGRFTISRDNSKNTLYLQMNSLRAEDTAVYYCAKPFLGWGGANWIAHWGQGTLVTVSS
light: DIQLTQSPSSLSASVGDRVTITCKASQDVGTSVAWYQQKPGKAPKLLIYWTSTRHTGVPSRFSGSGSGTDFTFTISSLQPEDIATYYCQQYSLYRSFGQGTKVEIKRTVAAPSVFIFPPSDEQLKSGTASVVCLLNNFYPREAKVQWKVDNALQSGNSQESVTEQDSKDSTYSLSSTLTLSKADYEKHKVYACEVTHQGLSSPVTKSFNRGEC
notes: Ly311 HC (IgG1 mutated Fc)-TM559 scFv VL-VH + Ly311 LC
B5: Ly410 (bispecific antibody, human IgG1, kappa)
heavy: EVQLVESGGGVVQPGRSLRLSCSASGFDFTTYWMSWVRQAPGKGLEWIGEIHPDSSTINYAPSLKDRFTISRDNAKNTLFLQMDSLRPEDTGVYFCASLYFGFPWFAYWGQGTPVTVSSASTKGPSVFPLAPSSKSTSGGTAALGCLVKDYFPEPVTVSWNSGALTSGVHTFPAVLQSSGLYSLSSVVTVPSSSLGTQTYICNVNHKPSNTKVDKKVEPKSCDKTHTCPPCPAPELLGPSVFLFPPKPKDTLMISRTPEVTCVVVDVSHEDPEVKFNWYVDGVEVHNAKTKPREEQYNSTYRVVSVLTVLHQDWLNGKEYKCKVSNKALPAPIEKTISKAKGQPREPQVYTLPPSREEMTKNQVSLTCLVKGFYPSDIAVEWESNGQPENNYKTTPPVLDSDGSFFLYSKLTVDKSRWQQGNVFSCSVMHEALHNHYTQKSLSLSPGGGGGSGGGGSGGGGSGGGGSEVQLVESGGGLVQPGGSLRLSCAASGFTFTNYGLHWVRQAPGKGLEWVSSISPSGGVTYYRDSVKGRFTISRDNSKNTLYLQMNSLRAEDTAVYYCAKPFLGWGGANWIAHWGQGTLVTVSSGGGGSGGGGSGGGGSGGGGSDIQMTQSPSSLSASVGDRVTITCLASEDISNDLAWYQQKPGKAPKLLIYFVDRLLDGVPSRFSGSGSGTDFTLTISSLQPEDFATYYCQQSYKYPPTFGQGTKLEIK
light: B4 light
notes: Ly311 HC (IgG1 mutated Fc)-TM559 scFv VH-VL + Ly311 LC
B6: Ly411 (bispecific antibody, human IgG1, kappa)
heavy: EVQLVESGGGVVQPGRSLRLSCSASGFDFTTYWMSWVRQAPGKGLEWIGEIHPDSSTINYAPSLKDRFTISRDNAKNTLFLQMDSLRPEDTGVYFCASLYFGFPWFAYWGQGTPVTVSSASTKGPSVFPLAPSSKSTSGGTAALGCLVKDYFPEPVTVSWNSGALTSGVHTFPAVLQSSGLYSLSSVVTVPSSSLGTQTYICNVNHKPSNTKVDKKVEPKSCDKTHTCPPCPAPELLGPSVFLFPPKPKDTLMISRTPEVTCVVVDVSHEDPEVKFNWYVDGVEVHNAKTKPREEQYNSTYRVVSVLTVLHQDWLNGKEYKCKVSNKALPAPIEKTISKAKGQPREPQVYTLPPSREEMTKNQVSLTCLVKGFYPSDIAVEWESNGQPENNYKTTPPVLDSDGSFFLYSKLTVDKSRWQQGNVFSCSVMHEALHNHYTQKSLSLSPGK
light: DIQLTQSPSSLSASVGDRVTITCKASQDVGTSVAWYQQKPGKAPKLLIYWTSTRHTGVPSRFSGSGSGTDFTFTISSLQPEDIATYYCQQYSLYRSFGQGTKVEIKRTVAAPSVFIFPPSDEQLKSGTASVVCLLNNFYPREAKVQWKVDNALQSGNSQESVTEQDSKDSTYSLSSTLTLSKADYEKHKVYACEVTHQGLSSPVTKSFNRGECGGGGSGGGGSGGGGSGGGGSDIQMTQSPSSLSASVGDRVTITCLASEDISNDLAWYQQKPGKAPKLLIYFVDRLLDGVPSRFSGSGSGTDFTLTISSLQPEDFATYYCQQSYKYPPTFGQGTKLEIKGGGGSGGGGSGGGGSGGGGSEVQLVESGGGLVQPGGSLRLSCAASGFTFTNYGLHWVRQAPGKGLEWVSSISPSGGVTYYRDSVKGRFTISRDNSKNTLYLQMNSLRAEDTAVYYCAKPFLGWGGANWIAHWGQGTLVTVSS
notes: Ly311 HC (IgG1 mutated Fc) + Ly311 LC-TM559 scFv VL-VH
B7: Ly412 (bispecific antibody, human IgG1, kappa)
heavy: B6 heavy
light: DIQLTQSPSSLSASVGDRVTITCKASQDVGTSVAWYQQKPGKAPKLLIYWTSTRHTGVPSRFSGSGSGTDFTFTISSLQPEDIATYYCQQYSLYRSFGQGTKVEIKRTVAAPSVFIFPPSDEQLKSGTASVVCLLNNFYPREAKVQWKVDNALQSGNSQESVTEQDSKDSTYSLSSTLTLSKADYEKHKVYACEVTHQGLSSPVTKSFNRGECGGGGSGGGGSGGGGSGGGGSEVQLVESGGGLVQPGGSLRLSCAASGFTFTNYGLHWVRQAPGKGLEWVSSISPSGGVTYYRDSVKGRFTISRDNSKNTLYLQMNSLRAEDTAVYYCAKPFLGWGGANWIAHWGQGTLVTVSSGGGGSGGGGSGGGGSGGGGSDIQMTQSPSSLSASVGDRVTITCLASEDISNDLAWYQQKPGKAPKLLIYFVDRLLDGVPSRFSGSGSGTDFTLTISSLQPEDFATYYCQQSYKYPPTFGQGTKLEIK
notes: Ly311 HC (IgG1 mutated Fc) + Ly311 LC-TM559 scFv VH-VL

molecular target: T1, human CD40 expressed on CHO cells (human, UniProt P25942 21-277); test: FACS, CHO cells
T1 construct: whole, on cells; also used for the reporter cells over-expressing human CD40; also called cellular CD40; CHO-CD40 cells
T1 sequence (P25942 21-277): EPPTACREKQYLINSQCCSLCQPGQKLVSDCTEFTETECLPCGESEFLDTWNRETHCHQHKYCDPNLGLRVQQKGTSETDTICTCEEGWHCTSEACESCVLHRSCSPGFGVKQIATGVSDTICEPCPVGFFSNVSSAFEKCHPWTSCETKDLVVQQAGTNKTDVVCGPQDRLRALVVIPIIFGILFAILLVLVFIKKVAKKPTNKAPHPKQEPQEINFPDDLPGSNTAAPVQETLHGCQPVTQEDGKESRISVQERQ

Row | Binder | binding result
1 | B1 | binds
2 | B2 | binds
3 | B3 | binds
4 | B4 | binds
5 | B5 | binds
6 | B6 | binds
7 | B7 | binds
